Data published in patent US9289468B2, “Fusion protein comprising circularly permuted form of trail/Apo2L, coding gene and use thereof” (Beijing Sunbio Biotech Co. Ltd., priority 2011, dated 2016).

Legend:
NCI-H460 cells = assay: Assay of killing activity on lung cancer cell line (crystal violet, IC50); format: cell-based, human; conditions: for Ratio of IC50 of mutants to IC50 of CPT (H460 cells): 20-24 hours, crystal violet; for killing activity compared to that of CPT: based on IC50
Method: The NCI-H460 cells (ATCC) were cultured in flasks until logarithmic growth phase, digested with 0.25% trypsin (Amresco), collected by centrifugation (1000 rpm, 5 min), resuspended in RPMI1640 medium (Invitrogen) containing 3% fetal bovine serum (FBS), counted and adjusted to 1.5×10^5/ml cell suspension, added into 96-well culture plates (Nunc) at 100 μl/well, and incubated at 37° C. in 5% CO2 incubator overnight. The sample to be tested was diluted to a certain concentration with 1640 medium containing 3% FBS, and further diluted at 4-fold dilutions (8 dilutions). The supernatant in the culture plate was discarded, and serial dilutions of the sample to be tested was added into the plate at 100 μl/well with a negative control and blank control set aside, incubated at 37° C. under 5% CO2 for 20-24 hours. Following examination under microscope, the supernatant was discarded, each well was added 50 μl 0.05% crystal violet solution (50 mg crystal violet was dissolved in 20 ml anhydrous ethanol, and water was added to the volume of 100 ml, then stored at room temperature) and stained for 3-5 minutes. The crystal violet was carefully washed with flowing water, the remaining water was removed by spin-drying, a destaining solution (50 ml distilled water, 50 ml anhydrous ethanol, and 0.1 ml glacial acetic acid were thoroughly mixed and stored at room temperature) was added at 100 μl/well, then the reading at OD570 was measured on a microplate reader (Bio-Rad 680) (reference wavelength of 630 nm). The inhibitory concentration 50 (IC50) of each sample was calculated by a four-parameter Logistic fitting using Sigmaplot10.0 software. The IC50 for CPT and each mutant of NCPT-1, NCPT-2, and NCPT-3 were calculated, and the activity change of each mutant was represented as a ratio of the IC50 of each mutant to that of CPT (Table 1).

[1] = test system: human COLO 205 xenograft tumor; assay: Inhibitory activity on human colon cancer xenograft tumors; format: in vivo, Balb/c nu mice
Method: 4 to 5 weeks old Balb/c nu mice ♂ (Institute of Experimental Animals, Chinese Academy of Medical Sciences) were subcutaneously inoculated with COLO 205 human colon tumor tissue pieces. When the tumor grew to the volume of 120 mm3, the tumor-bearing mice were divided into 4 groups (n=7/group), which were intraperitoneally injected with normal saline (negative control group), NCPT-1.M1 5 mg/kg, NCPT-1.M1 15 mg/kg and wtTRAIL 15 mg/kg once a day for 10 consecutive days. […] During the experiment, the tumor length diameter (a) and wide diameter (b) were measured every two days with a vernier caliper, and tumor volume (TV) was calculated according to the following formula: TV=½×a×b^2; From the above, the relative tumor volume (RTV) was calculated according to following formula: RTV=Vt/V0. Wherein V0 is the tumor volume measured on the day of the administration, but before administration (i.e., d0), and Vt is the tumor volume measured every time. The relative tumor proliferation rate T/C (%) is used as an evaluation index. Evaluation criteria: T/C (%)>40% means no effect; T/C (%)≦40% and the statistical significance of P<0.05 means being effective.
T/C %=RTVT/RTVC*100%. (RTVT: RTV of the treatment group; […]: RTV of the negative control group).

[2] = 15 mg/kg i.p. once a day for 10 days

Molecule | Ratio of IC50 of mutants to IC50 of CPT (H460 cells) (NCI-H460 cells) | killing activity compared to that of CPT (NCI-H460 cells) | also measured
NCPT-1.M3: MG+His3+NCPT-1, SEQ ID NO: 7 (protein, NCPT-1.M3 polypeptide sequence) MGHHHTLSSPNSKNEKALGRKINSWESSRSGHSFLSNLHLRNGELVIHEKGFYYIYSQTYFRFQEEIKENTKNDKQMVQYIYKYTSYPDPILLMKSARNSCWSKDAEYGLYSIYQGGIFELKENDRIFVSVTNEHLIDMDHEASFFGAFLVGGGGGGRVAAHITGTRGRSNT | 0.4 | significantly higher than that of CPT | 
NCPT-1.M7: MG+His9+NCPT-1, SEQ ID NO: 11 (protein, NCPT-1.M7 polypeptide sequence) MGHHHHHHHHHTLSSPNSKNEKALGRKINSWESSRSGHSFLSNLHLRNGELVIHEKGFYYIYSQTYFRFQEEIKENTKNDKQMVQYIYKYTSYPDPILLMKSARNSCWSKDAEYGLYSIYQGGIFELKENDRIFVSVTNEHLIDMDHEASFFGAFLVGGGGGGRVAAHITGTRGRSNT | 0.3 | significantly higher than that of CPT | 
NCPT-1.M8: MG+129-134+NCPT-1, SEQ ID NO: 12 (protein, NCPT-1.M8 polypeptide sequence) MGTRGRSNTLSSPNSKNEKALGRKINSWESSRSGHSFLSNLHLRNGELVIHEKGFYYIYSQTYFRFQEEIKENTKNDKQMVQYIYKYTSYPDPILLMKSARNSCWSKDAEYGLYSIYQGGIFELKENDRIFVSVTNEHLIDMDHEASFFGAFLVGGGGGGRVAAHITGTRGRSNT | 1.5 | significantly decreased compared to that of CPT | 
NCPT-1.M5: MG+His6+NCPT-1 with linker GSGGG, SEQ ID NO: 9 (protein, NCPT-1.M5 polypeptide sequence) MGHHHHHHTLSSPNSKNEKALGRKINSWESSRSGHSFLSNLHLRNGELVIHEKGFYYIYSQTYFRFQEEIKENTKNDKQMVQYIYKYTSYPDPILLMKSARNSCWSKDAEYGLYSIYQGGIFELKENDRIFVSVTNEHLIDMDHEASFFGAFLVGGSGGGRVAAHITGTRGRSNT | 0.15 | significantly higher than that of CPT | 
NCPT-1.M9: MG+Asn6+NCPT-1, SEQ ID NO: 13 (protein, NCPT-1.M9 polypeptide sequence) MGNNNNNNTLSSPNSKNEKALGRKINSWESSRSGHSFLSNLHLRNGELVIHEKGFYYIYSQTYFRFQEEIKENTKNDKQMVQYIYKYTSYPDPILLMKSARNSCWSKDAEYGLYSIYQGGIFELKENDRIFVSVTNEHLIDMDHEASFFGAFLVGGGGGGRVAAHITGTRGRSNT | 3.0 | significantly decreased compared to that of CPT | 
NCPT-3.M12: MG+His6+NCPT-3, SEQ ID NO: 16 (protein, NCPT-3.M12 polypeptide sequence) MGHHHHHHTLSSPNSKNEKALGRKINSWESSRSGHSFLSNLHLRNGELVIHEKGFYYIYSQTYFRFQEEIKENTKNDKQMVQYIYKYTSYPDPILLMKSARNSCWSKDAEYGLYSIYQGGIFELKENDRIFVSVTNEHLIDMDHEASFFGAFLVGGGGGGVRERGPQRVAAHITGTRGRSNT | 0.38 | significantly higher than that of CPT | 
NCPT-1.M6: MG+His6+NCPT-1 with linker GGSGGGG, SEQ ID NO: 10 (protein, NCPT-1.M6 polypeptide sequence) MGHHHHHHTLSSPNSKNEKALGRKINSWESSRSGHSFLSNLHLRNGELVIHEKGFYYIYSQTYFRFQEEIKENTKNDKQMVQYIYKYTSYPDPILLMKSARNSCWSKDAEYGLYSIYQGGIFELKENDRIFVSVTNEHLIDMDHEASFFGAFLVGGGSGGGGRVAAHITGTRGRSNT | 0.15 | significantly higher than that of CPT | 
NCPT-2.M11: MG+His6+NCPT-2, SEQ ID NO: 15 (protein, NCPT-2.M11 polypeptide sequence) MGHHHHHHTLSSPNSKNEKALGRKINSWESSRSGHSFLSNLHLRNGELVIHEKGFYYIYSQTYFRFQEEIKENTKNDKQMVQYIYKYTSYPDPILLMKSARNSCWSKDAEYGLYSIYQGGIFELKENDRIFVSVTNEHLIDMDHEASFFGAFLVGGGGGGTSEETISTVQEKQQNISPLVRERGPQRVAAHITGTRGRSNT | 0.47 | significantly higher than that of CPT | 
NCPT-1.M10: MG+NCPT-1+aa136-141, SEQ ID NO: 14 (protein, NCPT-1.M10 polypeptide sequence) MGTLSSPNSKNEKALGRKINSWESSRSGHSFLSNLHLRNGELVIHEKGFYYIYSQTYFRFQEEIKENTKNDKQMVQYIYKYTSYPDPILLMKSARNSCWSKDAEYGLYSIYQGGIFELKENDRIFVSVTNEHLIDMDHEASFFGAFLVGGGGGGRVAAHITGTRGRSNTLSSPNS | 1.2 | slightly decreased compared to that of CPT | 
NCPT-1.M2: MG+NCPT-1+His6, SEQ ID NO: 6 (protein, NCPT-1.M2 polypeptide sequence) MGTLSSPNSKNEKALGRKINSWESSRSGHSFLSNLHLRNGELVIHEKGFYYIYSQTYFRFQEEIKENTKNDKQMVQYIYKYTSYPDPILLMKSARNSCWSKDAEYGLYSIYQGGIFELKENDRIFVSVTNEHLIDMDHEASFFGAFLVGGGGGGRVAAHITGTRGRSNTHHHHHH | 0.1 | significantly higher than that of CPT | 
wtTRAIL: wild-type TRAIL (protein, UniProt P50591 1-281, looked up) Tumor necrosis factor ligand …: MAMMEVQGGPSLGQTCVLIVIFTVLLQSLCVAVTYVYFTNELKQMQDKYSKSGIACFLKEDDSYWDPNDEESMNSPCWQVKWQLRQLVRKMILRTSEETISTVQEKQQNISPLVRERGPQRVAAHITGTRGRSNTLSSPNSKNEKALGRKINSWESSRSGHSFLSNLHLRNGELVIHEKGFYYIYSQTYFRFQEEIKENTKNDKQMVQYIYKYTSYPDPILLMKSARNSCWSKDAEYGLYSIYQGGIFELKENDRIFVSVTNEHLIDMDHEASFFGAFLVG |  |  | relative tumor volume RTV [1, 2]: 1.58; tumor proliferation rate T/C(%) [1, 2]: 33.98%; Tumor volume TV beginning ([1]; 15 mg/kg i.p. once a day for 10 days, beginning): 127 ± 38.3 mm^3; Tumor volume TV ending ([1]; 15 mg/kg i.p. once a day for 10 days, ending): 212 mm^3; efficacy compared with NCPT-1.M1 ([1]; 15 mg/kg, COLO 205 xenograft, P<0.05): significantly weaker than that of NCPT-1.M1 with the same dosage; evaluation of efficacy (T/C ≦40% and P<0.05 means being effective) ([1]; both dosage groups of NCPT-1.M1 (5, 15 mg/kg), wtTRAIL 15 mg/kg): effective
NCPT-1.M4: His6+NCPT-1, SEQ ID NO: 8 (protein, NCPT-1.M4 polypeptide sequence) HHHHHHTLSSPNSKNEKALGRKINSWESSRSGHSFLSNLHLRNGELVIHEKGFYYIYSQTYFRFQEEIKENTKNDKQMVQYIYKYTSYPDPILLMKSARNSCWSKDAEYGLYSIYQGGIFELKENDRIFVSVTNEHLIDMDHEASFFGAFLVGGGGGGRVAAHITGTRGRSNT | 0.12 | significantly higher than that of CPT | 
